Results taken from paper PMC4192534.
pEC50, pIC50: −log10 of the molar value.

What was measured:
[1] = target: FGF2-C-His (C-terminal 6xHis tagged 18 kDa human FGF2) (human) (UniProt P09038); assay: AlphaScreen or HTRF; N-N orientation: FGF2-C-His bound to both Ni chelate donor and acceptor beads, increasing FGF2-C-His (0-75.5 µM)
[2] = target: FGF2-C-His (C-terminal 6xHis tagged 18 kDa human FGF2) (human) (UniProt P09038); assay: AlphaScreen or HTRF; N-N orientation, competition: 1 µM FGF2-C-His on Ni chelate donor and acceptor beads with increasing competitor
[3] = target: FGF2-C-His (C-terminal 6xHis tagged 18 kDa human FGF2) (human) (UniProt P09038); assay: AlphaScreen or HTRF; C-N orientation, competition: 50 nM FGF2-N-GST and 50 nM FGF2-C-His with increasing competitor, added 30 min before the beads; signal as percent of control without competitor

Row | Substance | pEC50 [1] | pIC50 [2] | pIC50 [3]
1 | FGF2-C-His (C-terminal 6xHis tagged 18 kDa human FGF2) (from UniProt P09038-2 1-155) (natural protein) | 5.20 |  | 
2 | FGF2-N-GST (N-terminal GST tagged 18 kDa human FGF2) (from UniProt P09038-2 1-155) (natural protein) |  | 6.21 | 
3 | Tag-less FGF2 (from UniProt P09038 143-288) (natural protein) |  |  | 6.74
4 | platelet factor 4 (PF4) (natural protein) |  | 5.02 | 6.58
